Results published in paper PMC5630700 (Frontiers in Immunology, 2017).

B1: sdAb A–Gaussia luciferase fusion (glucibody, pecan35) (VHH)
VHH: EVKLQESGGGLVQAGESLRLSCAVPPEVFDIRTVAWYRQVPLGKGRELLSSITPWNKTTYEDSVKDRFTISRDNAKYTVYLQMNDLKPEDTAVYYCAQGWGIASMRYWGQGTQVTVSS
notes: also called sdAb A glucibody; sdAb A–gluc; source: E. coli Tuner + pRARE, periplasmic (pecan35), purified
B2: sdAb C–Gaussia luciferase fusion (glucibody, pecan35) (VHH)
VHH: KVQLQESGGGLVQVGGSLRLSCKASGFTFRSSAMGWYRRAPGKQRELVASLTTTGTADYGDFVKGRFTISRDNAENTVDLHMNSLKPEDTAVYYCHEDPYGMESLRYWGQGTQVTVSS
notes: also called sdAb C glucibody; sdAb C–gluc; source: E. coli Tuner + pRARE, periplasmic (pecan35), purified
B3: sdAb B–Gaussia luciferase fusion (glucibody, pecan35) (VHH)
VHH: KVQLQESGGGLVQAGGSLRLSCAASGGTFSINTLGWYRRAPGKEREFVARISSGGITRYADSVKGRFTISRDNGKNTVYLDMNSLKPEDTAVYYCMYRNWGGGLDVYWGQGTQVTVSS
notes: also called sdAb B glucibody; sdAb B–gluc; source: E. coli Tuner + pRARE, periplasmic (pecan35), purified
B4: sdAb A as a BAP fusion (from pecan126) (VHH)
VHH: B1 VHH
notes: also called wild-type sdAb A; source: E. coli HBV88 (pecan126), purified
B5: sdAb C as a BAP fusion (from pecan126) (VHH)
VHH: B2 VHH
notes: also called wild-type sdAb C; source: E. coli HBV88 (pecan126), purified
B6: sdAb B as a BAP fusion (from pecan126) (VHH)
VHH: B3 VHH
notes: also called wild-type sdAb B; source: E. coli HBV88 (pecan126), purified

molecular target: T1, mbp-NP632 fusion protein (Marburg virus Musoke-80, UniProt P27588); test: ELISA; conditions: both partners purified
T1 construct: source: E. coli (pE), purified
T1 sequence (P27588 632-695): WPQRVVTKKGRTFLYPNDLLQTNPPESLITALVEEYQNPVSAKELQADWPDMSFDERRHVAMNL

B1 and B2 are within 1.5-fold of each other in EC50: 0.0154 µM for the first, 0.0223 µM for the second.

B3 gave an EC50 of 0.189 µM.

molecular target: T2, nluc-NP632 fusion protein (Marburg virus Musoke-80, UniProt P27588); test: ELISA; conditions: both partners purified
T2 construct: source: E. coli, cytosolic (pENCO derivative), purified

Going from B4 to B5, the EC50 rises from 0.0128 µM to 0.0266 µM (2.1-fold). The first is the more potent here.

Binder B6 has an EC50 of 0.0285 µM.
